Data on 17 sequences can be found in the DeepSol protein solubility set.

The nature of this series: soluble on expression in E. coli; label from the status in PepcDB or PDB records.
“GMKTSVKFETIFPLTTAPLIQCITNEITCESMANALLYIDAKPIMADDPREFPQMFQQTSALVLNLGHLSQEREQSLLAASDYARQVNKLTVVDLVGYGASDIRNEVGEKLVHNQPTVVKGNLSEMRTFCQLVSHGRGVDGSPLDQSEEAIEELIQALRQQTQKFPQTVFLATGIQDVLVSQEQVIVLQNGVPELDCFTGTGDLVGALVAALLGEGNAPMTAAVAAVSYFNLCGEKAKTKSQGLADFRQNTLNQLSLLMKEKDWFEAVKGRVL”: the “soluble on expression in E. coli” value is “soluble”.
For “GMLDNAIPQGFEDAVELRRKNRETVVKYMNTKGQDRLRRHELFVEDGCGGLWTTDTGSPIVIRGKDKLAEHAVWSLKCFPDWEWYNIKVFETDDPNHFWVECDGHGKILFPGYPEGYYENHFLHSFELDDGKIKRNREFMNVFQQLRALSIPVPQIKREGIPT”, the “soluble on expression in E. coli” value is “soluble”.
On to “GMMNTTTLDRYFDLFDASRTDEKAFDDLISLFSDEITFVLNGQEQHGIDAWKQFVRMVFTANQDIKHMYAGWVPSETGDTMETRWAVCGKSADGSVFTQDGTDIARLNADGKIVYLANVPDDTAMFNQYND”, for which the “soluble on expression in E. coli” value is given as “soluble”.
Consider “GMPQPTVLLLARADLSPVGTEFTTGPIDAHDPFDSGRRTAFVDEQGIAAGIVEFGTALSVEAYPYTEMLVMHRGSVTLTSGTDSVTLSTGESAVIGRGTQVRIDAQPESLWAFCASTQASGPDKSGITALDRLALLTPSSPPDPSIMISPLPQCRSNNLFEDTASTLRIGVWDSTPYERISRPHKIHELMNLIEGRVVLSLENGSSLTVNTGDTVFVAQGAPCKWTSTGYVRKFYAVT”, for which the “soluble on expression in E. coli” value is reported as “soluble”.
Then “GMQFPSIEDLRARNTMKWTRYGQGVLPLWVAESDFSTCPAVLQAITDAVQREAFGYQPDGSLLSQATAEFYADRYGYQARPEWIFPIPDVVRGLYIAIDHFTPAQSKVIVPTPAYPPFFHLLSATQREGIFIDATGGINLHDVEKGFQAGARSILLCNPYNPLGMVFAPEWLNELCDLAHRYDARVLVDEIHAPLVFDGQHTVAAGVSDTAASVCITITAPSKAWNIAGLKCAQIIFSNPSDAEHWQQLSPVIKDGASTLGLIAAEAAYRYGTDFLNQEVAYLKNNHDFLLHEIPKRIPGAKITPMQATYLMWIDFRDTTIEGSPSEFFIEKAKVAMNDGAWFGEDGTGFCRLNFATSREVLEEAIDRMAKAVSHHT”, with “soluble”; and “GMQKLTRINDFNEVLNSRKSVKVFDENYKIPREEMDEIITKATKAPSSVNMQPWRIAVVQSDEMKEKVKESFGFNSRQLTTSSAMLIIFGDLQNYEKAEQIYGDAVEQQLMTEDIKAQLLDWILPYYKNLSREGMKDIVNIDSSLMAMQLMLTAKAHGYDTNPIGGFDKENIADIIGYDSDRYVPVLAIAIGKKAQDAHDSVRLPIDDVREFL”, with “soluble”; and “GMREMQIMSQPEQSRLDLFIDRMVSQRACLEHAIAQTAGLSGPVYELGLGNGRTYHHLRQHVQGREIYVFERAVASHPDSTPPEAQLILGDIRETLPATLERFGATASLVHADLGGHNREKNDRFARLISPLIEPHLAQGGLMVSSDRMYFEGLEELPLPPGAVVGRCFIYRRG”, with “soluble”.
In the case of “GMRVDKHEVRVGELAAGQPLSLPVYRFKGKGAGPSVYIQANVHGAEVQGNAVIYQLMKLLEHYELLGDISLVPLANPLGINQKSGEFTLGRFDPITGVNWNREYLDHGFNIEVWYQEHSHLDDDTLITAFRATLVEECARRLNNPWGVTTGHRLAVTLQSMAHRADIVLDLHTGPKSCKHLYCPEYERSAAQYFSIPYTLLIPNSFGGAMDEAAFVPWWTLAEVASSHGRELGVRVSALTLELGSQERIDLDDALEDAEGILAYLSHRGVIAETVLPKPMKRYGCFLKNYRKFHAPKAGMVEYLGKVGVPMKATDPLVNLLRLDLYGTGEELTVLRLPEDGVPILHFASASVHQGTELYKVMTKVFEL”, the “soluble on expression in E. coli” value is on record as “soluble”.
On to “GMSIYNSIGKQYSQTRVPDIRIVNAIINLLNLPKGSVIADIGAGTGGYSVALANQGLFVYAVEPSIVMRQQAVVHPQVEWFTGYAENLALPDKSVDGVISILAIHHFSHLEKSFQEMQRIIRDGTIVLLTFDIRLAQRIWLYDYFPFLWEDALRFLPLDEQINLLQENTKRRVEAIPFLLPHDLSDLFAAAAWRRPELYLKAEVRAGISSFALANQDLVEKGLELLTADLNNGEWIRKYGEIHHLQEIDIGYRFIYTTLDK”, for which the “soluble on expression in E. coli” value is “soluble”.
On to “GMTAPTLSRAAMEKVIRTYYDGCNEADEAKMIACFVPEAVHYFPAGMYGGAFRGAAQIAHRWRTAVETLGSYWTIDALVIDAETAEAAIEWTHFKTNQDKVLRGAECVEFDRASGLIREIRAFYASPQAEGIARLELGDFDYAGRGYRVTSPRKPA”, for which the “soluble on expression in E. coli” value is listed as “soluble”.
On to “GMTDAPADAPLDADARRAVKPVICYPNDSLPRPDLALYRAARASARKTGEVLVPPREGRCFEVKAGQFFRISSVEGPQVGDLNLHNLHDLTERFFSGKTRALHGTHVTTGERLWSNLPYLRPMATIIEDTLGWYGIDQYGGSVHDVIGTRCDPYTGNLLAGGHYHHCCHSNLTRALADHTGLPLHEAEMLVHDVLNVFMCTGFTRDTGQYFMKASPVRPGDYLEFFAEIDLLGNLSACPGGDCSSEHSSDTASCHPLLVEIFAPAEGMLGDWPSPSVNGYDRSHGR”, for which the “soluble on expression in E. coli” value is “soluble”.
For “GMTKIRKIAVFIEETRIEAGREISPPTRKAVAVAVIENPFAGRYVEDLTELMDTGAELGALLGERCVQALGIRPEQAESYGKSAMVGENGELEHAAAILHPKLGAPLRKAVEKGAALVPSSKKMGSPGQVLDVPLGHKDAAYVRSHFDGIEVRLNDAPRANEIMVAVAVTDSGRPLPRVGGLTHDAAEGKDGLR”, the “soluble on expression in E. coli” value is on record as “soluble”.
For the sequence “GMTSSFTDYCKFFNRILSEVQETQEQAIIKGAHLVSEAVMNGGRFYVFGSGHSHMIAEEIYNRAGGLALVTAILPPELMLHERPNKSTYLERIEGLSKSYLKLHQVTNKDVIMIISNSGRNTVPVEMAIESRNIGAKVIAMTSMKHSQKVTSRHKSGKKLYEYADVVLDNGAPVGDAGFQIANSEIYSGATSDSIGCFLAQALIVETLHLLVQQGFEPPVFKSSNVDGADLYNDKIFNEYVKW”, the “soluble on expression in E. coli” value was “soluble”.
On to “GMTSTSITAVEYQSKRLESRLLKETREYVIALPEGYAQSLEAYPVVYLLDGEDQFDHMASLLQFLSQGTMPQIPKVIIVGIHNTNRMRDYTPTHTLVLPSGNKGNPQYQHTGGAGRFLDFIEKELAPSIESQLRTNGINVLVGHSFGGLVAMEALRTDRPLFSAYLALDTSLWFDSPHYLTLLEERVVKGDFKQKQLFMAIANNPLSPGFGVSSYHKDLNLAFADKLTKLAPKGLGFMAKYYPEETHQSVSHIGLYDGIRHLFKDFAIDIYSDSFSKQQVIDQYGVLSERFGHKVTPSQQYLEQLIQYSDRQQLTERKQMLEGLRQHFAKD”, for which the “soluble on expression in E. coli” value is “soluble”.
For the sequence “GMTTWKELTDNNPAHSENYAQRWRNLAAAGNDIYGEARLIDAMAPRGAKILDAGCGQGRIGGYLSKQGHDVLGTDLDPILIDYAKQDFPEARWVVGDLSVDQISETDFDLIVSAGNVMGFLAEDGREPALANIHRALGADGRAVIGFGAGRGWVFGDFLEVAERVGLELENAFESWDLKPFVQGSEFLVAVFTKK”, the “soluble on expression in E. coli” value was “soluble”.
The same measure for “GMVEKPQLKFKSPIDNSESHPFIPLLKEKPNALKPLSESLRLVDDDENNPSHYPHPYEYEIDHQEYSPEILQIREEIPSKSWDDSVPIWVDTSTELESMLEDLKNTKEIAVDLEHHDYRSYYGIVCLMQISTRERDYLVDTLKLRENLHILNEVFTNPSIVKVFHGAFMDIIWLQRDLGLYVVGLFDTYHASKAIGLPRHSLAYLLENFANFKTSKKYQLADWRIRPLSKPMTAAARADTHFLLNIYDQLRNKLIESNKLAGVLYESRNVAKRRFEYSKYRPLTPSSEVYSPIEKESPWKILMYQYNIPPEREVLVRELYQWRDLIARRDDESPRFVMPNQLLAALVAYTPTDVIGVVSLTNGVTEHVRQNAKLLANLIRDALRNIKNTNEEATPIPSSETKADGILLET”: “soluble”.
The same measure for “GNPLRKFKLVFLGEQSVGKTSLITRFMYDSFDNTYQATIGIDFLSKTMYLEDRTVRLQLWDTAGLERFRSLIPSYIRDSTVAVVVYDITNVNSFQQTTKWIDDVRTERGSDVIIMLVGNKTDLADKRQVSIEEGERKAKELNVMFIETSAKAGYNVKQLFRRVAAALPGMESTQDRSREDMIDIKLEK”: “soluble”.
